# Assay results published in the Human Domainome abundance scans (Beltran et al. 2025).
# ± gives the uncertainty stated by the source.
# B1: Homeobox protein SIX3, residues 212 to 262; numbered along this chain, O95343 (parent)
# chain: CFKERTRSLLREWYLQDPYPNPSKKRELAQATGLTPTQVGNWFKNRRQRDR
# Variants of: B1
# Assay: abundance fitness (aPCA) (normalised: wild type 0, dead -1); higher = more abundant; growth selection in yeast, the domain comes from the species named
# Details: Homo sapiens
row,Variant,abundance fitness
1,CFKERTRSLLREWYLQDPYPNPSKKRELAQATGLTPTQVGNWFKNYRQRDR,-0.504 ± 0.14
2,CFKERTRSLLREWYLQDPYPNPSKKRELAQATGLTPTQVGNWFKNHRQRDR,-0.269 ± 0.14
3,CFKERTRSLLREWYLQDPYPNPSKKRELAQATGLTPTQVGNWFKNTRQRDR,-0.117 ± 0.073
4,CFKERTRSLLREWYLQDPYPNPSKKRELAQATGLTPTQVGNWFKNLRQRDR,-0.531 ± 0.058
5,CFKERTRSLLREWYLQDPYPNPSKKRELAQATGLTPTQVGNWFKNFRQRDR,-0.63 ± 0.083
6,CFKERTRSLLREWYLQDPYPNPSKKRELAQATGLTPTQVGNWFKNARQRDR,-0.306 ± 0.091
7,CFKERTRSLLREWYLQDPYPNPSKKRELAQATGLTPTQVGNWFKNWRQRDR,-0.817 ± 0.14
8,CFKERTRSLLREWYLQDPYPNPSKKRELAQATGLTPTQVGNWFKNVRQRDR,-0.635 ± 0.086
9,CFKERTRSLLREWYLQDPYPNPSKKRELAQATGLTPTQVGNWFKNGRQRDR,-0.937 ± 0.058
10,CFKERTRSLLREWYLQDPYPNPSKKRELAQATGLTPTQVGNWFKNKRQRDR,0.144 ± 0.097
11,CFKERTRSLLREWYLQDPYPNPSKKRELAQATGLTPTQVGNWFKNCRQRDR,-0.554 ± 0.16
12,CFKERTRSLLREWYLQDPYPNPSKKRELAQATGLTPTQVGNWFKNPRQRDR,-0.611 ± 0.2
13,CFKERTRSLLREWYLQDPYPNPSKKRELAQATGLTPTQVGNWFKNIRQRDR,-0.748 ± 0.25
14,CFKERTRSLLREWYLQDPYPNPSKKRELAQATGLTPTQVGNWFKNDRQRDR,-0.67 ± 0.072
15,CFKERTRSLLREWYLQDPYPNPSKKRELAQATGLTPTQVGNWFKNNRQRDR,-0.456 ± 0.24
16,CFKERTRSLLREWYLQDPYPNPSKKRELAQATGLTPTQVGNWFKNQRQRDR,-0.045 ± 0.046
17,CFKERTRSLLREWYLQDPYPNPSKKRELAQATGLTPTQVGNWFKNSRQRDR,-0.326 ± 0.083
18,CFKERTRSLLREWYLQDPYPNPSKKRELAQATGLTPTQVGNWFKNERQRDR,-0.167 ± 0.13
19,CFKERTRSLLREWYLQDPYPNPSKKRELAQATGLTPTQVGNWFKNMRQRDR,-0.182 ± 0.061
20,CFKERTRSLLREWYLQDPYPNPSKKRELAQATGLTPTQVGNWFKYRRQRDR,-0.725 ± 0.24
21,CFKERTRSLLREWYLQDPYPNPSKKRELAQATGLTPTQVGNWFKRRRQRDR,-0.063 ± 0.05
22,CFKERTRSLLREWYLQDPYPNPSKKRELAQATGLTPTQVGNWFKSRRQRDR,-0.283 ± 0.045
23,CFKERTRSLLREWYLQDPYPNPSKKRELAQATGLTPTQVGNWFKWRRQRDR,-0.655 ± 0.1
24,CFKERTRSLLREWYLQDPYPNPSKKRELAQATGLTPTQVGNWFKQRRQRDR,-0.263 ± 0.052
25,CFKERTRSLLREWYLQDPYPNPSKKRELAQATGLTPTQVGNWFKMRRQRDR,-0.355 ± 0.1
26,CFKERTRSLLREWYLQDPYPNPSKKRELAQATGLTPTQVGNWFKPRRQRDR,-0.967 ± 0.23

row,Variant,abundance fitness
1,CFKERTRSLLREWYLQDPYPNPSKKRELAQATGLTPTQVGNWFKVRRQRDR,-0.493 ± 0.1
2,CFKERTRSLLREWYLQDPYPNPSKKRELAQATGLTPTQVGNWFKLRRQRDR,-0.28 ± 0.06
3,CFKERTRSLLREWYLQDPYPNPSKKRELAQATGLTPTQVGNWFKTRRQRDR,-0.255 ± 0.074
4,CFKERTRSLLREWYLQDPYPNPSKKRELAQATGLTPTQVGNWFKNRRQRDE,-0.155 ± 0.21
5,CFKERTRSLLREWYLQDPYPNPSKKRELAQATGLTPTQVGNWFKNRRQRDA,-0.031 ± 0.11
6,CFKERTRSLLREWYLQDPYPNPSKKRELAQATGLTPTQVGNWFKNRRQRDD,0.246 ± 0.16
7,CFKERTRSLLREWYLQDPYPNPSKKRELAQATGLTPTQVGNWFKNRRQRDF,-0.18 ± 0.33
8,CFKERTRSLLREWYLQDPYPNPSKKRELAQATGLTPTQVGNWFKNRWQRDR,-0.641 ± 0.14
9,CFKERTRSLLREWYLQDPYPNPSKKRELAQATGLTPTQVGNWFKNRFQRDR,-0.548 ± 0.14
10,CFKERTRSLLREWYLQDPYPNPSKKRELAQATGLTPTQVGNWFKNRTQRDR,-0.84 ± 0.056
11,CFKERTRSLLREWYLQDPYPNPSKKRELAQATGLTPTQVGNWFKNRCQRDR,-0.804 ± 0.13
12,CFKERTRSLLREWYLQDPYPNPSKKRELAQATGLTPTQVGNWFKNRQQRDR,-0.473 ± 0.052
13,CFKERTRSLLREWYLQDPYPNPSKKRELAQATGLTPTQVGNWFKNRPQRDR,-0.532 ± 0.074
14,CFKERTRSLLREWYLQDPYPNPSKKRELAQATGLTPTQVGNWFKNRYQRDR,-0.945 ± 0.12
15,CFKERTRSLLREWYLQDPYPNPSKKRELAQATGLTPTQVGNWFKNRIQRDR,-0.613 ± 0.093
16,CFKERTRSLLREWYLQDPYPNPSKKRELAQATGLTPTQVGNWFKNRMQRDR,-0.975 ± 0.11
17,CFKERTRSLLREWYLQDPYPNPSKKRELAQATGLTPTQVGNWFKNRNQRDR,-0.552 ± 0.11
18,CFKERTRSLLREWYLQDPYPNPSKKRELAQATGLTPTQVGNWFKNRDQRDR,-0.654 ± 0.17
19,CFKERTRSLLREWYLQDPYPNPSKKRELAQATGLTPTQVGNWFKNRVQRDR,-0.586 ± 0.051
20,CFKERTRSLLREWYLQDPYPNPSKKRELAQATGLTPTQVGNWFKNRKQRDR,-0.591 ± 0.13
21,CFKERTRSLLREWYLQDPYPNPSKKRELAQATGLTPTQVGNWFKNRSQRDR,-0.723 ± 0.064
22,CFKERTRSLLREWYLQDPYPNPSKKRELAQATGLTPTQVGNWFKNRGQRDR,-0.898 ± 0.081
23,CFKERTRSLLREWYLQDPYPNPSKKRELAQATGLTPTQVGNWFKNRAQRDR,-0.465 ± 0.059
24,CFKERTRSLLREWYLQDPYPNPSKKRELAQATGLTPTQVGNWFKNRHQRDR,-0.617 ± 0.092
25,CFKERTRSLLREWYLQDPYPNPSKKRELAQATGLTPTQVGNWFKNRRQPDR,-0.844 ± 0.23
26,CFKERTRSLLREWYLQDPYPNPSKKRELAQATGLTPTQVGNWFKNRRQFDR,-0.373 ± 0.16

row,Variant,abundance fitness
1,CFKERTRSLLREWYLQDPYPNPSKKRELAQATGLTPTQVGNWFKNRRQVDR,-0.153 ± 0.082
2,CFKERTRSLLREWYLQDPYPNPSKKRELAQATGLTPTQVGNWFKNRRQSDR,-0.279 ± 0.083
3,CFKERTRSLLREWYLQDPYPNPSKKRELAQATGLTPTQVGNWFKNRRQMDR,-0.247 ± 0.058
4,CFKERTRSLLREWYLQDPYPNPSKKRELAQATGLTPTQVGNWFKNRRQWDR,-0.462 ± 0.07
5,CFKERTRSLLREWYLQDPYPNPSKKRELAQATGLTPTQVGNWFKNRRQTDR,-0.18 ± 0.082
6,CFKERTRSLLREWYLQDPYPNPSKKRELAQATGLTPTQVGNWFKNRRQDDR,-0.033 ± 0.11
7,CFKERTRSLLREWYLQDPYPNPSKKRELAQATGLTPTQVGNWFKNRRQYDR,-0.074 ± 0.12
8,CFKERTRSLLREWYLQDPYPNPSKKRELAQATGLTPTQVGNWFKNRRQADR,-0.222 ± 0.079
9,CFKERTRSLLREWYLQDPYPNPSKKRELAQATGLTPTQVGNWFKNRRQCDR,-0.539 ± 0.1
10,CFKERTRSLLREWYLQDPYPNPSKKRELAQATGLTPTQVGNWFKNRRQLDR,-0.388 ± 0.057
11,CFKERTRSLLREWYLQDPYPNPSKKRELAQATGLTPTQVGNWFKNRRQKDR,0.025 ± 0.073
12,CFKERTRSLLREWYLQDPYPNPSKKRELAQATGLTPTQVGNWFKNRRQEDR,0 ± 0.042
13,CFKERTRSLLREWYLQDPYPNPSKKRELAQATGLTPTQVGNWFKNRRQQDR,0.018 ± 0.089
14,CFKERTRSLLREWYLQDPYPNPSKKRELAQATGLTPTQVGNWFKNRRQHDR,-0.371 ± 0.22
15,CFKERTRSLLREWYLQDPYPNPSKKRELAQATGLTPTQVGNWFKNRRQGDR,-0.373 ± 0.051
16,CFKERTRSLLREWYLQDPYPNPSKKRELAQATGLTPTQVGNWFKNRRQIDR,-0.216 ± 0.14
17,CFKERTRSLLREWYLQDPYPNPSKKRELAQATGLTPTQVGNWFKNRRQNDR,-0.221 ± 0.19
18,CFKERTRSLLREWYLQDPYPNPSKKRELAQATGLTPTQVGNWFKNRRCRDR,-0.147 ± 0.095
19,CFKERTRSLLREWYLQDPYPNPSKKRELAQATGLTPTQVGNWFKNRRHRDR,-0.042 ± 0.18
20,CFKERTRSLLREWYLQDPYPNPSKKRELAQATGLTPTQVGNWFKNRRFRDR,-0.46 ± 0.18
21,CFKERTRSLLREWYLQDPYPNPSKKRELAQATGLTPTQVGNWFKNRRMRDR,-0.431 ± 0.077
22,CFKERTRSLLREWYLQDPYPNPSKKRELAQATGLTPTQVGNWFKNRRERDR,-0.267 ± 0.12
23,CFKERTRSLLREWYLQDPYPNPSKKRELAQATGLTPTQVGNWFKNRRWRDR,-0.117 ± 0.08
24,CFKERTRSLLREWYLQDPYPNPSKKRELAQATGLTPTQVGNWFKNRRTRDR,-0.242 ± 0.082
25,CFKERTRSLLREWYLQDPYPNPSKKRELAQATGLTPTQVGNWFKNRRYRDR,-0.055 ± 0.13
26,CFKERTRSLLREWYLQDPYPNPSKKRELAQATGLTPTQVGNWFKNRRNRDR,-0.166 ± 0.12

row,Variant,abundance fitness
1,CFKERTRSLLREWYLQDPYPNPSKKRELAQATGLTPTQVGNWFKNRRDRDR,-0.37 ± 0.061
2,CFKERTRSLLREWYLQDPYPNPSKKRELAQATGLTPTQVGNWFKNRRSRDR,-0.124 ± 0.051
3,CFKERTRSLLREWYLQDPYPNPSKKRELAQATGLTPTQVGNWFKNRRRRDR,0.397 ± 0.049
4,CFKERTRSLLREWYLQDPYPNPSKKRELAQATGLTPTQVGNWFKNRRARDR,0.028 ± 0.069
5,CFKERTRSLLREWYLQDPYPNPSKKRELAQATGLTPTQVGNWFKNRRPRDR,-0.799 ± 0.24
6,CFKERTRSLLREWYLQDPYPNPSKKRELAQATGLTPTQVGNWFKNRRKRDR,0.177 ± 0.087
7,CFKERTRSLLREWYLQDPYPNPSKKRELAQATGLTPTQVGNWFKNRRLRDR,-0.225 ± 0.057
8,CFKERTRSLLREWYLQDPYPNPSKKRELAQATGLTPTQVGNWFKNRRVRDR,-0.545 ± 0.086
9,CFKERTRSLLREWYLQDPYPNPSKKRELAQATGLTPTQVGNWFKNRRQRLR,-0.64 ± 0.057
10,CFKERTRSLLREWYLQDPYPNPSKKRELAQATGLTPTQVGNWFKNRRQRMR,-0.799 ± 0.25
11,CFKERTRSLLREWYLQDPYPNPSKKRELAQATGLTPTQVGNWFKNRRQRVR,-0.699 ± 0.095
12,CFKERTRSLLREWYLQDPYPNPSKKRELAQATGLTPTQVGNWFKNRRQRWR,-1.17 ± 0.4
13,CFKERTRSLLREWYLQDPYPNPSKKRELAQATGLTPTQVGNWFKNRRQRNR,-0.747 ± 0.19
14,CFKERTRSLLREWYLQDPYPNPSKKRELAQATGLTPTQVGNWFKNRRQRQR,-0.276 ± 0.065
15,CFKERTRSLLREWYLQDPYPNPSKKRELAQATGLTPTQVGNWFKNRRQRER,0.189 ± 0.1
16,CFKERTRSLLREWYLQDPYPNPSKKRELAQATGLTPTQVGNWFKNRRQRGR,-0.609 ± 0.047
17,CFKERTRSLLREWYLQDPYPNPSKKRELAQATGLTPTQVGNWFKNRRQRIR,-0.737 ± 0.11
18,CFKERTRSLLREWYLQDPYPNPSKKRELAQATGLTPTQVGNWFKNRRQRHR,-0.515 ± 0.14
19,CFKERTRSLLREWYLQDPYPNPSKKRELAQATGLTPTQVGNWFKNRRQRTR,-0.582 ± 0.12
20,CFKERTRSLLREWYLQDPYPNPSKKRELAQATGLTPTQVGNWFKNRRQRRR,-1.08 ± 0.21
21,CFKERTRSLLREWYLQDPYPNPSKKRELAQATGLTPTQVGNWFKNRRQRSR,-0.491 ± 0.074
22,CFKERTRSLLREWYLQDPYPNPSKKRELAQATGLTPTQVGNWFKNRRQRAR,-0.579 ± 0.11
23,CFKERTRSLLREWYLQDPYPNPSKKRELAQATGLTPTQVGNWFKNRRQRCR,-0.678 ± 0.064
24,CFKERTRSLLREWYLQDPYPNPSKKRELAQATGLTPTQVGNWFKNRRQRYR,-0.6 ± 0.17
